Measured values as given in patent US20190367578A1 (Novo Nordisk, published 2019).
*1 amine or outer side, *2 acyl side, *3 side chain or, on linkers, in order; H or OH if unused. Where no end group is shown, it is not given here. Side-chain parts run from the residue outwards. [ ]: non-standard residue; d: D form. The star is where a group is joined. C18 diacid = O=C(O)CCCCCCCCCCCCCCCCC(=O)*; γGlu = O=C(O)[C@H](CCC(=O)[*:2])N[*:1]; Nle = CCCC[C@H](N)C(=O)O; AEEA = NCCOCCOCC(=O)O; Aib = CC(C)(N)C(=O)O

T1: human GIP receptor (human) (UniProt P48546)
T1 sequence (looked up): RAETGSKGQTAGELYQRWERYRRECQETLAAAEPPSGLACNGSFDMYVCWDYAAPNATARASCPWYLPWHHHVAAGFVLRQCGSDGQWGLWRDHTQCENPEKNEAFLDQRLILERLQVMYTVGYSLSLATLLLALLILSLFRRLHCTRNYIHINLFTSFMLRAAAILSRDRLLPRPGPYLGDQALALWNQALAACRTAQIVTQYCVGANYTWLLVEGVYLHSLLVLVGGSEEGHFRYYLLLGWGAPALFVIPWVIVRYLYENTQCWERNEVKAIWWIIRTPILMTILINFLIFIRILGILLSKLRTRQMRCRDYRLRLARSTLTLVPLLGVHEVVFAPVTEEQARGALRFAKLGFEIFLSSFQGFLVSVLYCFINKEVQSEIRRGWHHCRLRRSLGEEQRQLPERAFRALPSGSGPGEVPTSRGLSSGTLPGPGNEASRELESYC


target: T1, human GIP receptor (human); assay: cell-based or functional assay

Binder | EC50 (pM), hGIP-R CRE Luc, 0.2% HSA
Y[Aib]EGTFISDYSIA[Nle]DKIRQQDFVK([AEEA-AEEA-γGlu-C18 diacid])WLLAQKGKEEDWKHNITQ | 4.12 pM
Y[Aib]EGTFISDYSIA[Nle]DKIRQQDFVK([γGlu-γGlu-γGlu-C18 diacid])WLLAQKGKENDWKHNITQ | 20.1 pM
Y[Aib]EGTFISDYSIA[Nle]DKIHQQDFVK([AEEA-AEEA-γGlu-C18 diacid])WLLAQKGKEEDWKHNITQ | 5.45 pM
Y[Aib]EGTFISDYSIA[Nle]DKIHQQDFVK([AEEA-AEEA-γGlu-C18 diacid])WLLAQKGKEDDWKHNITQ | 5.97 pM
Y[Aib]EGTFISDYSIALDKIHQQDFVK([AEEA-AEEA-γGlu-C18 diacid])WLLAQKGKKNDWKHNITQ | 56 pM
Y[Aib]EGTFISDYSIA[Nle]DKIRQQDFVK([γGlu-γGlu-γGlu-C18 diacid])WLLAQKGKEEDWKHNITQ | 4.47 pM

Continued, values first:

EC50 (pM), hGIP-R CRE Luc, 0.2% HSA | Binder
5.9 pM | Y[Aib]EGTFISDYSIA[Nle]DKIHQQDFVK([γGlu-γGlu-γGlu-C18 diacid])WLLAQKGKEDDWKHNITQ
9 pM | Y[Aib]EGTFISDYSIA[Nle]DKIHQQDFVK([γGlu-γGlu-γGlu-C18 diacid])WLLAQKGKEEDWKHNITQ

target: human GLP-1 receptor (human) (UniProt P43220); assay: cell-based or functional assay
Sequence (P43220 24-463): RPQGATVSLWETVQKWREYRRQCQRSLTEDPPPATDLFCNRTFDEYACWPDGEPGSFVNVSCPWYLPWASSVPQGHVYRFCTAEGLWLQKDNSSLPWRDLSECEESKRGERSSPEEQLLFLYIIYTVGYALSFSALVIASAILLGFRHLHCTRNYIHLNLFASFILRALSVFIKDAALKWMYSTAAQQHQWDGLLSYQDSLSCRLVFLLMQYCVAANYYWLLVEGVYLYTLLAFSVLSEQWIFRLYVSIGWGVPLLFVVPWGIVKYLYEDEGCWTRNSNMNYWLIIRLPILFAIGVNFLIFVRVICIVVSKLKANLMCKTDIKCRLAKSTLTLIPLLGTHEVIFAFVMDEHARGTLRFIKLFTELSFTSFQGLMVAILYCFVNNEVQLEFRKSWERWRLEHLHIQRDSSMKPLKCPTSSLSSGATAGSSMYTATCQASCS

Binder | EC50 (pM), hGLP-1-R CRE Luc, 0.2% HSA | EC50 (pM), hGLP-1-R CRE Luc, 1% HSA (footnote *)
Y[Aib]EGTFISDYSIA[Nle]DKIRQQDFVK([AEEA-AEEA-γGlu-C18 diacid])WLLAQKGKEEDWKHNITQ | > 100000 pM | 
Y[Aib]EGTFISDYSIA[Nle]DKIRQQDFVK([γGlu-γGlu-γGlu-C18 diacid])WLLAQKGKENDWKHNITQ |  | > 100000 pM
Y[Aib]EGTFISDYSIA[Nle]DKIHQQDFVK([AEEA-AEEA-γGlu-C18 diacid])WLLAQKGKEEDWKHNITQ | > 100000 pM | 
Y[Aib]EGTFISDYSIA[Nle]DKIHQQDFVK([AEEA-AEEA-γGlu-C18 diacid])WLLAQKGKEDDWKHNITQ | > 100000 pM | 
Y[Aib]EGTFISDYSIALDKIHQQDFVK([AEEA-AEEA-γGlu-C18 diacid])WLLAQKGKKNDWKHNITQ |  | > 100000 pM
Y[Aib]EGTFISDYSIA[Nle]DKIRQQDFVK([γGlu-γGlu-γGlu-C18 diacid])WLLAQKGKEEDWKHNITQ | > 100000 pM | 

Further lines, results first:

EC50 (pM), hGLP-1-R CRE Luc, 0.2% HSA | EC50 (pM), hGLP-1-R CRE Luc, 1% HSA (footnote *) | Binder
> 100000 pM |  | Y[Aib]EGTFISDYSIA[Nle]DKIHQQDFVK([γGlu-γGlu-γGlu-C18 diacid])WLLAQKGKEDDWKHNITQ
> 100000 pM |  | Y[Aib]EGTFISDYSIA[Nle]DKIHQQDFVK([γGlu-γGlu-γGlu-C18 diacid])WLLAQKGKEEDWKHNITQ

target: human glucagon receptor (human) (UniProt P47871); assay: cell-based or functional assay
Sequence (P47871 26-477): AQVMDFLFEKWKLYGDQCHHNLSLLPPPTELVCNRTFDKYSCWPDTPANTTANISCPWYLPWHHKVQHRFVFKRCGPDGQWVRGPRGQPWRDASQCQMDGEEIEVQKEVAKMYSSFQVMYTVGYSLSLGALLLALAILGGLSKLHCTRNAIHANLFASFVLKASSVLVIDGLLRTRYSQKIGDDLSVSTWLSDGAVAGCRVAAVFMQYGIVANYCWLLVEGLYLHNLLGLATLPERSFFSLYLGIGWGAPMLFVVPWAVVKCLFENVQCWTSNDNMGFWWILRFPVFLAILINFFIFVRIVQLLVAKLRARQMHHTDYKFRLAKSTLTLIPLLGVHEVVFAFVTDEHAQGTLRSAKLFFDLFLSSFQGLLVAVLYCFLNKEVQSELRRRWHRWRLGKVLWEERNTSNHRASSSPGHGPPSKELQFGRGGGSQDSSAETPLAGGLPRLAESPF

Binder | EC50 (pM), hGcg-R CRE Luc, 0.2% HSA | EC50 (pM), hGcg-R CRE Luc, 1% HSA (footnote *)
Y[Aib]EGTFISDYSIA[Nle]DKIRQQDFVK([AEEA-AEEA-γGlu-C18 diacid])WLLAQKGKEEDWKHNITQ | > 100000 pM | 
Y[Aib]EGTFISDYSIA[Nle]DKIRQQDFVK([γGlu-γGlu-γGlu-C18 diacid])WLLAQKGKENDWKHNITQ |  | > 100000 pM
Y[Aib]EGTFISDYSIA[Nle]DKIHQQDFVK([AEEA-AEEA-γGlu-C18 diacid])WLLAQKGKEEDWKHNITQ | > 100000 pM | 
Y[Aib]EGTFISDYSIA[Nle]DKIHQQDFVK([AEEA-AEEA-γGlu-C18 diacid])WLLAQKGKEDDWKHNITQ | > 100000 pM | 
Y[Aib]EGTFISDYSIALDKIHQQDFVK([AEEA-AEEA-γGlu-C18 diacid])WLLAQKGKKNDWKHNITQ |  | > 100000 pM
Y[Aib]EGTFISDYSIA[Nle]DKIRQQDFVK([γGlu-γGlu-γGlu-C18 diacid])WLLAQKGKEEDWKHNITQ | > 100000 pM | 

Second part, the binder after the results:

EC50 (pM), hGcg-R CRE Luc, 0.2% HSA | EC50 (pM), hGcg-R CRE Luc, 1% HSA (footnote *) | Binder
> 100000 pM |  | Y[Aib]EGTFISDYSIA[Nle]DKIHQQDFVK([γGlu-γGlu-γGlu-C18 diacid])WLLAQKGKEDDWKHNITQ
> 100000 pM |  | Y[Aib]EGTFISDYSIA[Nle]DKIHQQDFVK([γGlu-γGlu-γGlu-C18 diacid])WLLAQKGKEEDWKHNITQ

target: human glucagon receptor (human, UniProt P47871 26-477); assay: cell-based or functional assay
Sequence (P47871 26-477): as the sequence (P47871 26-477) above

EC50 (pM), hGcg-R CRE Luc, 0.2% HSA | Binder
> 100000 pM | H-YAEGTFISDYSIAMDKIHQQDFVNWLLAQKGKKNDWKHNITQ-OH [hGIP(1-42)]
